53 proteins from the supplement of paper PMC10567573 can be followed below.

This data set in a line: protein stability index of a GFP-peptide fusion (GPS, HEK-293T) (PSI 1-6); higher = more stable.
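Also: lentivirally expressed fusions sorted by FACS into six bins by GFP to DsRed ratio, PSI derived from sequencing read proportions per bin multiplied by bin number.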

On to FVYENAKEGARNIRTSERVTLIVD, for which the protein stability index (parent: IOH43395_26, c terminus: a fixed tail appended) was 1.94.
Consider FHLAPARAGHHPNQYATCRLCGRQ, for which, for the setting “parent: IOH45853_11, c terminus: a fixed tail appended”, the protein stability index came out at 1.84.
For the protein CFITLTTIGFGDYVALQTKGALQK, the protein stability index (parent: IOH45737_33, c terminus: a fixed tail appended) came out at 2.94.
As to AQLQALRQKEVDFCISLLRERFME, where the note is “parent: IOH41890_38, c terminus: a fixed tail appended”, the protein stability index came to 2.31.
Consider DYFPSEDFYRCGYCKNESGSRSNG, for which, for the setting “parent: IOH45551_3, c terminus: a fixed tail appended”, the protein stability index is 2.1.
As for VVGTPCYISPELCEGKPYNQKSDI, for the setting “parent: IOH45357_28, c terminus: a fixed tail appended”, the protein stability index came out at 2.69.
Turning to TLSEAYIQIWKRRDNDETNQQGA, the protein stability index (parent: IOH45672_93, c terminus: native) worked out at 2.22.
On to IRVMVHGRNHTPFLGHHSFSVRPG, for which the protein stability index (parent: IOH42569_55, c terminus: a fixed tail appended) stood at 2.25.
Consider PRYREDPCKQCKKKYVKGDVSLCR [FBXO34 WT], for which the protein stability index (parent: IOH41760_105, c terminus: a fixed tail appended) came to 2.57.
In the case of FHPIKETVVEEPVDITPYLDQLDE, the protein stability index (parent: IOH41890_93, c terminus: a fixed tail appended) is 3.32.
Turning to FQGSMRIFTKKLPHPDLPAEEKEQ, the protein stability index (parent: IOH45672_59, c terminus: a fixed tail appended) worked out at 2.02.
In the case of QKNFELAFTMAENLANCERLIEVE, the protein stability index (parent: IOH43320_45, c terminus: a fixed tail appended) was determined as 1.84.
On to YSAYIRRCACAASSDESPGSKCSP [TTC32 WT], for which the protein stability index (parent: IOH43157_6, c terminus: a fixed tail appended) stood at 1.99.
On to RAGHHPNQYATCRLCGRQVSRGPG, for which the protein stability index (parent: IOH45853_12, c terminus: a fixed tail appended) stood at 2.02.
On to KKREFRFHPIKETVVEEPVDITPY, for which, for the setting “parent: IOH41890_92, c terminus: a fixed tail appended”, the protein stability index worked out at 1.94.
Take FQFASIDVAGNLDYKALSYVITHG: the protein stability index (parent: IOH44370_25, c terminus: a fixed tail appended) was found to be 2.42.
For the protein YTGRAPNLDKMADNLLAAADKYAL, the protein stability index (parent: IOH45687_44, c terminus: a fixed tail appended) came to 2.12.
On to YAHQPRTADEIPMEPGDIIGVAGN, for which the protein stability index (parent: IOH44218_86, c terminus: a fixed tail appended) worked out at 4.04.
In the case of PDDKLTLFCEVSVVQDSVNISGHT, the protein stability index (parent: IOH45687_26, c terminus: a fixed tail appended) was 2.06.
As for FYRLYQDLETHRLPCTSRCPRPCR, the protein stability index (parent: IOH42569_73, c terminus: a fixed tail appended) was determined as 2.21.
Regarding DVAGNLDYKALSYVITHGEEKEE, under “parent: IOH44370_26, c terminus: native”, the protein stability index stood at 2.21.
In the case of EEAEELAKEMSVPFYTSRIDEVLL, the protein stability index (parent: IOH42390_7, c terminus: a fixed tail appended) was 3.76.
Regarding YGSFHQQYWLDGKIIAVGVIDILP, the protein stability index (parent: IOH45551_57, c terminus: a fixed tail appended) came to 2.33.
As to TKEKKHQCDHCERCFYTRKDVRRH, the protein stability index (parent: IOH42591_26, c terminus: a fixed tail appended) worked out at 3.45.
As to EKPPSGTKEKKHQCDHCERCFYTR, the protein stability index (parent: IOH42591_25, c terminus: a fixed tail appended) came to 3.58.
With YQQIKAGAYDFPSPEWDTVTPEAK [CAMK2B WT], the protein stability index (parent: IOH45432_38, c terminus: a fixed tail appended) came to 3.58.
Consider CKDFLCQFCAQRFGRKDHLTRHTK, for which, under “parent: IOH42591_31, c terminus: a fixed tail appended”, the protein stability index stood at 2.02.
On to NWLGRPSKVLSLQDLCCRTIVSCT [RAB40A WT], for which, under “parent: IOH45721_31, c terminus: a fixed tail appended”, the protein stability index worked out at 2.45.
For the protein KLLVVDRTRRLGNMKNGANDVKHH [PRKX WT], the protein stability index (parent: IOH45425_47, c terminus: a fixed tail appended) is 3.15.
YPPLEGHVRQGVFSSLNHIVEKRV: where the note is “parent: IOH41890_75, c terminus: a fixed tail appended”, the protein stability index is 2.53.
Consider QVPVVDFQAELRQAFLAETPRGG [SNURF WT], for which the protein stability index (parent: IOH45840_9, c terminus: native) was 2.99.
Take NWRYATGGWETVFRPVSETCTDRS: the protein stability index (parent: IOH44218_42, c terminus: a fixed tail appended) turned out to be 1.78.
With RRPSPVLRHLELLDEFARENIDSL, the protein stability index (parent: IOH42569_24, c terminus: a fixed tail appended) was 2.6.
For the protein LELGSTEVLLDHLKAHAEEKPPSG, the protein stability index (parent: IOH42591_22, c terminus: a fixed tail appended) turned out to be 4.44.
For DPNKMAFGCEECGKKYNTMLGYKR, the protein stability index (parent: IOH42591_15, c terminus: a fixed tail appended) came to 2.34.
On to FLGHHSFSVRPGTEATISIREDEV, for which, where the note is “parent: IOH42569_57, c terminus: a fixed tail appended”, the protein stability index was 1.72.
As to AKREETKAMESQRAYRFVQGKDWG, the protein stability index (parent: IOH45687_19, c terminus: a fixed tail appended) was 2.71.
Regarding EEITEESLEESVGKPLYLIFRNLC, for the setting “parent: IOH41890_107, c terminus: a fixed tail appended”, the protein stability index amounted to 2.68.
Consider FVEKNPTIVNFPITNVDLREYLSE, for which, for the setting “parent: IOH45672_78, c terminus: a fixed tail appended”, the protein stability index amounted to 1.94.
Regarding YTFGSNQHGQLGTNTRRGSRAPCK, the protein stability index (parent: IOH45357_98, c terminus: a fixed tail appended) stood at 3.79.
Turning to LCKDCQVIDGRNVTVTDVDIVFSK [TPPP WT], under “parent: IOH43477_14, c terminus: a fixed tail appended”, the protein stability index came out at 2.25.
Consider YQDMIYAVGGRDDTTELSSAERYN [KLHL20 WT], for which the protein stability index (parent: IOH45628_85, c terminus: a fixed tail appended) was 2.4.
As for DRKLHSRPRKLYKHSSTSSRIAKG, for the setting “parent: IOH43395_4, c terminus: a fixed tail appended”, the protein stability index came to 3.86.
Regarding AFTMAENLANCERLIEVEDMMVMG, the protein stability index (parent: IOH43320_46, c terminus: a fixed tail appended) amounted to 2.04.
Turning to YPCLEKPRIWSLAHTATASAVEGA [IRX6 WT], where the note is “parent: IOH43040_58, c terminus: a fixed tail appended”, the protein stability index was 2.44.
For the protein SDDFCTFQMVLEGGVCCTVTLNFN, the protein stability index (parent: IOH42390_37, c terminus: a fixed tail appended) is 3.15.
Turning to DVPDLQSVCSCTCYRSQDYGGRSV, the protein stability index (parent: IOH45737_49, c terminus: a fixed tail appended) amounted to 1.8.
As to VTIKHVACGDFFTACLTDRGIIMT, the protein stability index (parent: IOH45357_66, c terminus: a fixed tail appended) was 2.6.
For the protein YPSYKVREKIETVKYPTYPEAEK, the protein stability index (parent: IOH44218_94, c terminus: native) was determined as 4.2.
In the case of ETAAGKGKGEARARLKRSQSFGVA, the protein stability index (parent: IOH43320_31, c terminus: a fixed tail appended) was determined as 4.31.
Turning to FTSGFNAAALDYEADGSTNNGIFQ [SPACA3 WT], the protein stability index (parent: IOH42995_21, c terminus: a fixed tail appended) was determined as 1.89.
For the protein FSDDEEDLNSKGKKREFRFHPIKE, the protein stability index (parent: IOH41890_90, c terminus: a fixed tail appended) was 2.85.
In the case of DLNSKGKKREFRFHPIKETVVEEP, where the note is “parent: IOH41890_91, c terminus: a fixed tail appended”, the protein stability index was 2.23.
